The values below come from article PMC7617805, “Mechanism of DNA capture by the MukBEF SMC complex and its inhibition by a viral DNA mimic” (Cell, 2025).

Data set [1] deals with the molecule itself. Nature of the data set: cryo-EM structure; wild-type P. thracensis MukBEF dimers 150 nM with nicked plasmid pFB526, 5 mM ATP, 10 mM MgCl2, optionally Na3VO4 or BeSO4/NaF; datasets pooled; open-gate and DNA capture states.
Data set [2] concerns the molecule itself. Nature of the data set: cryo-EM structure; E. coli MukEF 1 uM with 4 uM gp5.9 in 20 mM Tris, 200 mM NaCl, 0.5 mM TCEP, 0.05 % β-octyl glucoside, pH 7.4; focused refinement on gp5.9/MukE.

B1: P. thracensis MukB, wild type, as subunit of the MukBEF complex used for cryo-EM (natural protein, Photorhabdus thracensis, UniProt A0A0F7LRY2 1-1482, looked up)
chain: MIERGKFRSLTLVNWNGFFARTFDLDELVTTLSGGNGAGKSTTMAAFVTALIPDLTLLHFRNTTEAGATSGSRDKGLHGKLRAGVCYSTLDVINSRHQRVVVGVRLQQVAGRDRKVDIKPFMIQGLPTAIQPTQLLTENVGERQARVLPLNELKDRLDEMEGVQFKQFNSITDYHAQMFDLGVIPKRLRSASDRSKFYRLIEASLYGGISSAITRSLRDYLLPENSGVRKAFQDMEAALRENRITLEAIRVTQSDRDLFKHLITEATSYVSADYMRHANERRTHLDEALALRGELFGSHKQLATEQYRHVEMARELAEQSGASSDLETDHQAASDHLNLVQTAMRQQEKIDRYQVDLEELSYRLEEQTDVVEEAGELQAEYEARTEATEQEVDELKSQLADYQQALDVQQTRAIQYQQALQALERARELCRLPDLSVDNAEEWLETFQAKEQQATEALLALEQKLSVADAAHNQFEQAYQLVKNIVGETSRSEAWQSARELLRDWPSQRHLADRVQPLRMRLSELEQRLNNQQNAERLLSEFCKRQGRQYQAEDLEALQNELEARQEALSLSVNEGGERRMEMRQELEQLKQKIQSLTARAPVWLAAQDTLNQLCEQSGETLASSNDVTEYMQQLLEREREATVERDEVAAQKRELEKQIERLSQPSGAEDSRMIALAERFGGVLLSEIYDDITIDDAPYFSALYGPARHGIVVPDLSLVRPHLETLEDCPEDLYLIEGDPQSFDDSVFNAEEQTNAVLVKSSDRQWRYSRYPELPLFGRAARENRLEALNLERDALAERYATLSFDVQKIQRAHQAFSQFVGKHLSVAFDTDPEAEIRELRQRHTELEREVSRFEDQTQQQRQQYAQAKESLTTLNRLIPQVTLLLDETLIDRVEEVREEMDEAQEAARFLQQHGSALTKLEPMVAVLQSDPQQHEQLQQDYETAKHSQHQAKQQAFALVEIVQRRVHFSYSDSAGMLSENADLNDKLRQRLEHAESDRSRAREQLRQQQAQYSQFNQVLASLKSSYETKQDMLKELLQEMKDIGVQADANAEMRARERRDRLHEALSVNRSRVNQLEKQIAFCEAEMENVQKKLRKLERDYYQIREQVVSAKAGWCAVMRMVKDNGVERRLHRRELAYMEGGALRSMSDKALGALRLAVADNEHLRDALRLSEDPKRPERKVQFFIAVYQHLRERIRQDIIRTDDPVDAIEQMEIELARLTEELTAREQKLAISSKSVANIIRKTIQREQNRIRMLNQGLQAVSFGQVRGVRLNVNVRESHAILLDVLSEQQEQHQDLFNSQRLTFSEAMAKLYQRLNPQVDMGQRLPQTIGEELLDYRNYLELDVEVNRGSDGWLKAESGALSTGEAIGTGMSILVMVVQSWEEESRRLRGKDISPCRLLFLDEAARLDAKSIATLFELCERLQMQLIIAAPENISPEKGTTYKLVRKVFKNHEHVHVVGLRGFGQDAPATQLISDVTA
notes: MukB of Photorhabdus thracensis; the MukB chain of m14; also called κ-MukB; ν-MukB; source: E. coli BL21-Gold(DE3), polycistronic pFB403, purified as the MukBEF complex; not shown: His6-SUMO, N-terminal, cleaved
Take B1: the binding result in data set [1] is given as “binds”.

B2: T7 gp5.9 (untagged after cleavage, from insect cells) (natural protein, bacteriophage T7)
chain: MSRDLVTIPRDVWNDIQGYIDSLERENDSLKNQLMEADEYVAELEEKLNGTS
notes: gp5.9 of bacteriophage T7; Used as 'gp5.9 dimers' in SEC; source: Hi5 insect cells, purified (Talon, 3C cleavage, HisTrap flowthrough, MonoQ)
As for B2, in data set [2], the stoichiometry N (as a rule, the number of molecules, sites or subunits per partner or assembly) came out at 2.
